Results: paper PMC2722949 (Journal of molecular biology, 2009)
Where no end group is shown, it is not given here. [ ]: non-standard residue; d: D form. pY = N[C@@H](Cc1ccc(OP(=O)(O)O)cc1)C(=O)O

B1: phospho-SLP76 peptide (ADpYEPP) (peptide)
peptide: AD[pY]EPP
B2: Btk SH2 phospho-peptide ligand (GDGpYEEISPLLL) (peptide)
peptide: GDG[pY]EEISPLLL

How the values were obtained:
Assay in all cases: NMR titration
[1] = target: Itk SH2 domain, wild type (mouse (the paper calls its residue numbers 'mouse numbering'))
[2] = target: Itk SH2 domain E308A/K309A double mutant (mouse (the paper calls its residue numbers 'mouse numbering'))
[3] = target: Btk SH2 domain, wild type (UniProt Q06187 270-387)
Chain of Btk SH2 domain, wild type (Q06187 270-387): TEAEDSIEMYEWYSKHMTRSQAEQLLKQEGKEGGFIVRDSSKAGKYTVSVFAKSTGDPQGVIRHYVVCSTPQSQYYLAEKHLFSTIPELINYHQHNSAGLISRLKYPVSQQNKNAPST

Btk SH2 domain S371P = Btk SH2 domain S371P (UniProt Q06187 270-387, S371P)
Chain of Btk SH2 domain S371P (Q06187 270-387 S371P): as the sequence (Q06187 270-387) above, with S102P counted along it

Btk SH2 domain H364D = Btk SH2 domain H364D (UniProt Q06187 270-387, H364D)
Chain of Btk SH2 domain H364D (Q06187 270-387 H364D): as the sequence (Q06187 270-387) above, with H95D counted along it

Binder	Kd [1] [µM]	Kd [2] [µM]	Kd [3] [µM]	Kd (Btk SH2 domain S371P) [µM]	Kd (Btk SH2 domain H364D) [µM]
B1	380	480	–	–	–
B2	–	–	450 ± 40	600 ± 110	500 ± 200
